The target in experiment [1] is RSV prefusion F (preF), DS-Cav1 (respiratory syncytial virus, UniProt P03420 26-513). Briefly: BLI, IgG on sensor, 100 nM antigen. (In general: In BLI a coated tip is dipped into the sample, and binding shifts an interference pattern.)
Experiment [2] addresses RSV postfusion F (postF), F deltaFP (respiratory syncytial virus, UniProt P03420 26-513). Briefly: BLI, IgG on sensor, 100 nM antigen.
Experiment [3] deals with RSV fusion glycoprotein (RSV F) on RSV-A2 virus (respiratory syncytial virus, UniProt P03420 26-574). Briefly: cell-based or functional assay.
The target of experiment [4] is RSV F on RSV subtype A virus (RSV-A2) (Respiratory Syncytial Virus, subtype A, …, UniProt P03420 26-574). Briefly: cell-based or functional assay.
The target of experiment [5] is T1, RSV postfusion F, subtype B (postF trimer) (Respiratory syncytial virus subtype B, UniProt P13843 26-513).
T1 construct: also called Postfusion subtype B
Briefly: BLI, IgG apparent affinity.

The target of experiment [6] is RSV F on recombinant mKate-RSV B 18537 virus (Respiratory syncytial virus B 18537, UniProt P13843 26-574). Briefly: cell-based or functional assay.
Experiment [7] has as its target RSV F on recombinant mKate-RSV A2 virus (Respiratory syncytial virus A2, UniProt P03420 26-574). Briefly: cell-based or functional assay.

Bounds are passed on as bounds.

The record followed here is patent US20260258115A1 (MAPP BIOPHARMACEUTICAL, published 2026).

What is called Kd is a measure of binding affinity in units of concentration. A low value points to higher affinity.

B1: ADI-41453 (antibody, V domains shown)
VH: QVQLVQSGAEVRKPGASVKVSCKASGYTFSIYDMNWVRQAPGQGLEWMGWMNPNSGNTGYAQKFQGRVTMTGDTSISTAYMELSSLTSEDTAVYYCAVMYGDYPGYWGQGSLVTVSS
VL: SYELTQPLSVSVALGQTARITCGGNNIGSKSVHWYQQKPGQAPVLVIYRDAKRPSGIPERFSGSNSGNTATLTISGAQAGDEADYYCQVWDSNAWIFGGRTKLTVL
notes: IgG1; also called Ab 737
As for B1, the Kd is 2.17 nM in experiment [1] and 0.403 nM in experiment [2]. In addition, the “Neutralization IC50 (RSV subtype A)” value in experiment [3] is above 25 µg/mL.

B2: ADI-41829 (antibody, V domains shown)
VH: EVQLVESGGGLVKPGGSLRLSCAASGFTSSGYNMNWVRQAPGKGLEWVSSISGSSSYIHYADSVKGRFTISRDNAKNSLYLQMNSLRAEDTAVYYCATVGALPGHFDNWGQGTLVTVSS
VL: QAVVTQEPSVSGAPGQRVTISCTGSSSNIGAGYDVHWYQQLPGTAPKLLIYDNTNRPSGVPDRFSGSKSGTSASLAITGLQAEDEADYYCQSYDSRLTYVFGTGTKVTVL
Regarding B2, in experiment [4], the “Neutralization IC50 (RSV subtype A)” value was 0.12 µg/mL.

B3: ADI-21065 (antibody, V domains shown)
VH: EVQLLESGGGLVQPGGSLRLSCAASGFTFSSYAMNWVRQAPGKGLEWVSGISGSGESTYYADSVKGRFTISRDSSKNTVYLQMNSLRADDTAVYYCAKDQGYGVVVPAATRALPPRRYGMDVWGQGTTVTVSS
VL: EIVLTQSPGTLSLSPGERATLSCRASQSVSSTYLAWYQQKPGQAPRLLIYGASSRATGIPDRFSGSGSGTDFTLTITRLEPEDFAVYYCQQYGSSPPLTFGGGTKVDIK
On to B3, for which, in experiment [5], the binding result is reported as “no binding”.

B4: ADI-41831 (antibody, V domains shown)
VH: EVQLLESGGGLVKPGGSLRLSCAASGFTFSSYAMHWVRQPPGKGLEWVSSISASSSFINYADSVKGRFTISRDGARNSLYLQMNSLRAEDTAVYYCVREDYDSSGYGLHWFDPWGQGTTVTVSS
VL: SYVLTQPPSVSGAPGQRVTISCTGSSSNIGAGYDVHWYQQFPGTAPKLLMYGNTNRPSGVPDRFSGSKSGTSASLAITGLQAEDEADYYCQSYDRSLSGWVFGGGTKLTVL
For B4, the “Neutralization IC50 (RSV subtype A)” value in experiment [4] is 5.21 µg/mL.

B5: ADI-43640 (antibody, V domains shown)
VH: QVQLVQSGGGLVKPGGSLRLSCAASGFTFSSYSMNWVRQAPGKGLEWVSSISSSSSYIYYADSVKGRFTISRDNAKNSLYLQMNSLRAEDTAVYYCAREGRDGYNYNFDYWGQGTLVTVSS
VL: QSVVTQPPSVSGAPGQRVTISCTGSSSNIGAGYDVHWYQQLPGTAPKLLIYGNSNRPSGVPDRFSGSKSGTSASLAITGLQAEDEADYYCQSYDSSLSGVVFGGGTKLTVL
For the molecule B5, in experiment [4], the “Neutralization IC50 (RSV subtype A)” value is above 25 µg/mL.

B6: ADI-41816 (antibody, V domains shown)
VH: QVQLVQSGAEVKKPGASVKVSCEASGYTFTDSYIHWVRQAPGQGLEWMGWINPNSGGTNYAQKFQGRVTMTRDTSTSTAFIELSRLRSDDTAVYYSARGVRQQWLVNTGDPDYYFDFWGQGTLVTVSS
VL: SYVLTQPPSVSVSPGQTASITCSGDKLGDKYSCWYQQKPGQSPVLVIYQDYKRPSGIPERFSGSNSGNTATLTISGTQAMDEADYYCQAWDRNAGVFGTGTKLTVL
Regarding B6, the “Neutralization IC50 (RSV subtype A)” value in experiment [4] is 0.91 µg/mL.

B7: ADI-41832 (antibody, V domains shown)
VH: EVQLVESGGGLVQPGGSLRLSCAASGFTFSKYAMNWVRQAPGKGLEWVSSISDSGDSRYYADSVKGRFTISRDSSKNTLNLQMNSLRAEDTAVYYCAKAGWELFSPQGAFDLWGQGTMVTVSS
VL: EIVMTQSPGTLSLSPGERATLSCRASQSVSSSHLAWYQQKPGQAPRLLIYGASSRDSGIPDRFSGSGSGTDFTLSISRLEPEDFAVYYCQHYGNSPYTFGQGTKVDIK
B7: the “Neutralization IC50 (RSV subtype A)” value in experiment [4] amounted to 0.19 µg/mL.

B8: ADI-21072 (antibody, V domains shown)
VH: QVQLVQSGGGLVKPGGSLRLSCEASGFNFRSYHMSWVRQAPGKGLEWVSSITAGSSYINYADSVKGRFTISRDNAKNSVFLQMNSLSAEDTAVYYCAREGLNMGVGGTWFDPWGQGTLVTVSS
VL: QAVVTQEPSVSGAPGQRVTISCTGSSSNIGAGYDVHWYQQLPGTAPKLLIYGNNNRPSGVPDRFSGSKSATSASLAITGLQADDEADYYCQSYDRSLSGSWVFGTGTKVTVL
On to B8, for which the “Neut IC50 (ug/ml) subtype B” value in experiment [6] amounted to 0.33 µg/mL. Moreover, the “Neut IC50 (ug/ml) subtype A” value in experiment [7] amounted to 0.04 µg/mL. Further, in experiment [5], the binding result was “no binding”.

B9: ADI-21064 (antibody, V domains shown)
VH: EVQLVESGGEVKKPGASVKVSCKASGYIFSNHGVSWVRQAPGQGLEWMGWISAYNGNAIYAQNLQGRVTLTTDTSTSTAYMELTSLTSDDTAIYYCARESGATAAAVMDYWGQGTLVTVSS
VL: DIVLTQTPLSLPVILGQPASISCRSSQSLVYSDGNTYLTWFQQRPGQSPRRLIYKVSNRDSGVPDRFSGSGSDTDFTLKISRVEAEDVGVYYCMQGIDWPRTFGQGTKVDIK
For B9, the “Neut IC50 (ug/ml) subtype B” value in experiment [6] was 0.12 µg/mL. Also, the “Neut IC50 (ug/ml) subtype A” value in experiment [7] turned out to be 0.03 µg/mL. The binding result in experiment [5] was “no binding”.

B10: ADI-41834 (antibody, V domains shown)
VH: EVQLLESGGRLVQPGRSLRLSCAASGFTVSGSYMSWVRQAPGKGLEWVSVIYIDGGTKYADSVKGRFTISRDNSKNTVYLQMNSLRAEDTAVYYCARDSSLWYRGGDYWGQGTLVTVSS
VL: DIQMTQSPSSLSASVGDRVTITCQANHDISNYLNWYQQKPGKAPKLLIYDASILEAGVPSRFSGSGSGTHFTFTISSLQPEDIATYYCQQFDFRALTFGGGTKVEIK
Take B10: in experiment [4], the “Neutralization IC50 (RSV subtype A)” value was 0.07 µg/mL.

B11: ADI-41830 (antibody, V domains shown)
VH: QVQLVQSGPAVKKPGASVKVSCKASGYIFTSYGVSWVRQAPGQGLEWMGWISGYNGNTDYAQKFQGRVTLTVDSSTGTVYMDLRSLRSDDTAIYYCARAPPLPGQVYDGAGSYLLHGYWGQGTLVTVSS
VL: not shown
Take B11: in experiment [4], the “Neutralization IC50 (RSV subtype A)” value came to 0.12 µg/mL.

B12: ADI-41840 (antibody, V domains shown)
VH: QVQLVQSGAEVKKPGSSVKVSCKASGDTFSGYAIYWVRQAPGRGLELMGGIIPILGTSSYAQRFLGRTSFTADESTSTAYMDLSSLTSADTAMYYCARKRVTVPVPFDSWGQGTLVTVSS
VL: EIVMTQSPATLSVSPGERATLSCRASQSVSSNLAWYQQKLGQAPRLLIYGASTRATDIPARFSGSGSGTEFTLTISSLQSEDFVVYYCQQYNNWPWTFGQGTKVEIK
As to B12, the “Neutralization IC50 (RSV subtype A)” value in experiment [4] was above 25 µg/mL.

B13: ADI-21075 (antibody, V domains shown)
VH: EVQLVESGGGLVKPGGSLRLSCAASGFSFSNYYMSWVRQAPGKGLEWISYISGGSTYANLADSVKGRFTISRDNTKNSMYLQMTSLRPDDTAVYYCARIHGTHGPFYFDYWGQGTLVTVSS
VL: QSVLTQPPSVSGAPGQRVTISCTGSSSNIGAGYDVHWYQQLPGTAPKLLIHANSNRPSGVPDRFSGSKSGTSASLAITGLQAEDEADYYCQSYDNSLNAYYVFGTGTKLTVL
notes: also called Ab 320
B13: in experiment [6], the “Neut IC50 (ug/ml) subtype B” value was determined as 0.48 µg/mL. In addition, the “Neut IC50 (ug/ml) subtype A” value in experiment [7] stood at 0.03 µg/mL. For the same molecule, the binding result in experiment [5] is on record as “no binding”.

B14: ADI-41835 (antibody, V domains shown)
VH: EVQLLESGGGLVQPGGSLRLSCAASGFTFSSYAMNWVRQAPGKGLEWVSIISDSGGSTYYADSVKGRFTISRDNSKNTLYLQMNSLRAEDTAVYYCAKATPLKWELLIGSTPGYYFDYWGQGTTVTVSS
VL: SYELTQLPSVSVSPGQTASITCSGDKLGDKYACWYQQKPGQSPVVIMYQDNKRPSGIPERFSGSNSGNTATLTISGTQAMDEADYYCQAWDSSTGVFGGGTKVTVL
With B14, the “Neutralization IC50 (RSV subtype A)” value in experiment [4] was determined as 0.45 µg/mL.
